Measurements taken from patent US20220315554A1, “COMPOUNDS COMPRISING A […] LIGAND AND USE THEREOF” (priority 2019, published 2022).

Assays:
[1] = target: T1, A20 (Homo sapiens (Human)) (UniProt P21580)
T1 sequence: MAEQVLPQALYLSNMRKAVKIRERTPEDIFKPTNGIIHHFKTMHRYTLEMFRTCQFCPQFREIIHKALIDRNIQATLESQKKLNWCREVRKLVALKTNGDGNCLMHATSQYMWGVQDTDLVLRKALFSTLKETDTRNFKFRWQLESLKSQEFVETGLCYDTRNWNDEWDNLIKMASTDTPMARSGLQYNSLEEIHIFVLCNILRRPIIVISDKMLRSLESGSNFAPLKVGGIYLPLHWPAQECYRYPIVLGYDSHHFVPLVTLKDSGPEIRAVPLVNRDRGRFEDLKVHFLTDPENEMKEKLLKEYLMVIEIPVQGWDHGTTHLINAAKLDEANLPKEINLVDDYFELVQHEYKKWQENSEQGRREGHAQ

[2] = target: Cathepsin L (Homo sapiens (Human)) (UniProt P07711)
[3] = target: T2, DPP3 (Homo sapiens (Human)) (UniProt Q9NY33)
T2 sequence: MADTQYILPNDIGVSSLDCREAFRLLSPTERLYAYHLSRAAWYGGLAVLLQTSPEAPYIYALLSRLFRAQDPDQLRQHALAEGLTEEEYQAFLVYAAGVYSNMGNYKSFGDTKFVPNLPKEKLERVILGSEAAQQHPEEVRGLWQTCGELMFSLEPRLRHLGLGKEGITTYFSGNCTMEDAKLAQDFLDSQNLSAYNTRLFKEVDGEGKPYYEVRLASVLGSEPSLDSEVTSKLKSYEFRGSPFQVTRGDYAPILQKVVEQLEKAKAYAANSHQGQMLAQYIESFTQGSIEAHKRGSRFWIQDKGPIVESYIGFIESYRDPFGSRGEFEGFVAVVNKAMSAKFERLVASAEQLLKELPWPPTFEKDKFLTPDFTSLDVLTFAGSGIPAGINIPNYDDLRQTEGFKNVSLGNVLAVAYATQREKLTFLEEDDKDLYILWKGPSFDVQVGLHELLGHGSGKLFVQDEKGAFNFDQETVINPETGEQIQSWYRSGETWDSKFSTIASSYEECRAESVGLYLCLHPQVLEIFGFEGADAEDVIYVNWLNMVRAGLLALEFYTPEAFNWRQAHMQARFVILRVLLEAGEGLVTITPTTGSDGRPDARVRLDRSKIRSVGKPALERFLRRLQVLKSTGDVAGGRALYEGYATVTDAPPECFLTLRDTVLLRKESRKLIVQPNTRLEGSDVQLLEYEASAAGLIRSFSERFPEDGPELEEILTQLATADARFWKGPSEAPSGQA

[4] = target: T3, Deubiquitinase OTUD6B (Homo sapiens (Human)) (UniProt Q8N6M0)
T3 sequence: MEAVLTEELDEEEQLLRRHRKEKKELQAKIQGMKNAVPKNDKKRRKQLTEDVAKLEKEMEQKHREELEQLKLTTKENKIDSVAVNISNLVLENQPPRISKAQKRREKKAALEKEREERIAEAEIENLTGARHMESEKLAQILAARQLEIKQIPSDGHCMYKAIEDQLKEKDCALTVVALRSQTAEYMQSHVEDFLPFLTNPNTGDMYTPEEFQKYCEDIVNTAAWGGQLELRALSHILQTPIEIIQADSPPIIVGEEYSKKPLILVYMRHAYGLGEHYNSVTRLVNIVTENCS

[5] = target: Matrix metalloprotease1 (Homo sapiens (Human)) (UniProt P03956)
Matrix metalloprotease1 (Homo sapiens (Human)), sequence (P03956 100-469): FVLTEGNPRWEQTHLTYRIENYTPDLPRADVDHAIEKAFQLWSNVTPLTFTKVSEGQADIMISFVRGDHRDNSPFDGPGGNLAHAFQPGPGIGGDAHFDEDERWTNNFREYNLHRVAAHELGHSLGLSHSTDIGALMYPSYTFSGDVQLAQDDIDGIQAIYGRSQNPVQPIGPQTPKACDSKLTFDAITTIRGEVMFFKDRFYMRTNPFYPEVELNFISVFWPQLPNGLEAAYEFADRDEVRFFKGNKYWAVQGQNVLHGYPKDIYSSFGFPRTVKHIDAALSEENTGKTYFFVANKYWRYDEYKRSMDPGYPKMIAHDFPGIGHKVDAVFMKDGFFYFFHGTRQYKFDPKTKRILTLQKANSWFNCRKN

[6] = target: Ubiquitin carboxy-terminal hydrolase 10 (Homo sapiens (Human)) (UniProt Q14694)
Ubiquitin carboxy-terminal hydrolase 10 (Homo sapiens (Human)), sequence (Q14694 whole entry): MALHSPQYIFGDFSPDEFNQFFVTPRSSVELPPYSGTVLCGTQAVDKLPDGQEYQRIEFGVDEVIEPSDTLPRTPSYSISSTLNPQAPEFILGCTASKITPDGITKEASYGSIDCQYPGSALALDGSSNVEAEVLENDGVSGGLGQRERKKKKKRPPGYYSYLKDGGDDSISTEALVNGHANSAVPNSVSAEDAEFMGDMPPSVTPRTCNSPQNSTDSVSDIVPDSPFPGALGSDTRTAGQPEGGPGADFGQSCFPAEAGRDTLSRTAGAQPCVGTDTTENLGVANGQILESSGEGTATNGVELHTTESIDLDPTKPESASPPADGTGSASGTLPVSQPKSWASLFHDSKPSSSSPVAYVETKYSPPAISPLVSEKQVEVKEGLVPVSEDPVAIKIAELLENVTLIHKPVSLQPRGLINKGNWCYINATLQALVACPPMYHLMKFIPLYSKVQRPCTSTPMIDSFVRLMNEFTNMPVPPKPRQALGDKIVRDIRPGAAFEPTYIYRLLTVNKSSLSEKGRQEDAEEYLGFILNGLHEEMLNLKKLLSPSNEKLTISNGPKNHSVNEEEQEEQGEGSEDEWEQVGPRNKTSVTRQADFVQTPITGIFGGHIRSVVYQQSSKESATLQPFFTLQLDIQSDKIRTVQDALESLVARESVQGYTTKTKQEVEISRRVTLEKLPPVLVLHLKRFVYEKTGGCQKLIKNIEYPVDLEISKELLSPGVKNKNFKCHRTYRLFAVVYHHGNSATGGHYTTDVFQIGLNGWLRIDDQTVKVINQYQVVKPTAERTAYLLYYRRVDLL

[7] = target: Ubiquitin carboxy-terminal hydrolase 8 (Homo sapiens (Human)) (UniProt P40818)
[8] = target: T4, Recombinant human FAP (R&D systems, #3715-SE) (human)
T4 sequence: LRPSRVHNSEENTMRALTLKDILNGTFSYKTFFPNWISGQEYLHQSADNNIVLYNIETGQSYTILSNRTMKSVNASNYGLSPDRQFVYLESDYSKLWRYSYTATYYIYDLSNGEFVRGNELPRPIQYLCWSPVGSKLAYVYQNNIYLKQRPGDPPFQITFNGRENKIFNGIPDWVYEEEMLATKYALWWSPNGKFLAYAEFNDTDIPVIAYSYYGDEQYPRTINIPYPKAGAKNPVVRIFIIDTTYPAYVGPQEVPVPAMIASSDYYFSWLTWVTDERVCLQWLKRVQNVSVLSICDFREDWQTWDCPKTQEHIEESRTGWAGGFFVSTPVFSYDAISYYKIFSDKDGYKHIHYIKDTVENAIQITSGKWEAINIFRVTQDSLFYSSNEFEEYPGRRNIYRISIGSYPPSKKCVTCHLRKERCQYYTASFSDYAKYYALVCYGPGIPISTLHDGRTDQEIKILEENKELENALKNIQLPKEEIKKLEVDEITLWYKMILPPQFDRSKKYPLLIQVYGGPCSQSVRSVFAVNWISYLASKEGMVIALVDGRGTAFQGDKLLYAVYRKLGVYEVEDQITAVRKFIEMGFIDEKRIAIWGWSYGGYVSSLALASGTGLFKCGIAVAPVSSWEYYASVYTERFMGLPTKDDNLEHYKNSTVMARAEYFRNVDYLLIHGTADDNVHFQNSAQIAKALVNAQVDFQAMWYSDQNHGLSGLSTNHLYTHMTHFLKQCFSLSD

Row | Percentage inhibition (%) at 10 µM [1] | Percentage inhibition (%) at 10 µM [2] | Percentage inhibition (%) at 10 µM [3] | Percentage inhibition (%) at 10 µM [4] | Percentage inhibition (%) at 10 µM [5] | Percentage inhibition (%) at 10 µM [6] | Percentage inhibition (%) at 10 µM [7] | pIC50 Category (Activity) [8] | Substance
1 | 0% | -6% | -1% | 0% | -7% | -1% | 1% | – | Hex-[Cys(tMeBn(DOTA-AET))-Pro-Pro-Thr-Gln-Phe-Cys]-OH (peptide)
2 | -4% | 6% | – | 15% | 2% | 5% | 6% | > 8 pIC50 | Hex-[Cys(tMeBn(DOTA-PP))-Pro-Pro-Thr-Gln-Phe-Cys]-Asp-NH2 (peptide)
